Results reported in US20240261333A1, “NOVEL TARGETS FOR ENHANCING ANTI-TUMOR IMMUNITY” (THE BROAD INSTITUTE, INC., priority 2021, published 2024).

Experiments:
HNRNPK (human) = HNRNPK (human) (UniProt P61978); test: co-IP, IgG control, lysate of cells with N-FLAG B3GNT2; mass spectrometry
HADHB (human) = HADHB (human) (UniProt P55084); test: as above
FUBP3 (human) = FUBP3 (human) (UniProt Q96I24); test: as above
MOV10 (human) = target: T1, MOV10 (human) (UniProt Q9HCE1); test: as above
T1 sequence (looked up): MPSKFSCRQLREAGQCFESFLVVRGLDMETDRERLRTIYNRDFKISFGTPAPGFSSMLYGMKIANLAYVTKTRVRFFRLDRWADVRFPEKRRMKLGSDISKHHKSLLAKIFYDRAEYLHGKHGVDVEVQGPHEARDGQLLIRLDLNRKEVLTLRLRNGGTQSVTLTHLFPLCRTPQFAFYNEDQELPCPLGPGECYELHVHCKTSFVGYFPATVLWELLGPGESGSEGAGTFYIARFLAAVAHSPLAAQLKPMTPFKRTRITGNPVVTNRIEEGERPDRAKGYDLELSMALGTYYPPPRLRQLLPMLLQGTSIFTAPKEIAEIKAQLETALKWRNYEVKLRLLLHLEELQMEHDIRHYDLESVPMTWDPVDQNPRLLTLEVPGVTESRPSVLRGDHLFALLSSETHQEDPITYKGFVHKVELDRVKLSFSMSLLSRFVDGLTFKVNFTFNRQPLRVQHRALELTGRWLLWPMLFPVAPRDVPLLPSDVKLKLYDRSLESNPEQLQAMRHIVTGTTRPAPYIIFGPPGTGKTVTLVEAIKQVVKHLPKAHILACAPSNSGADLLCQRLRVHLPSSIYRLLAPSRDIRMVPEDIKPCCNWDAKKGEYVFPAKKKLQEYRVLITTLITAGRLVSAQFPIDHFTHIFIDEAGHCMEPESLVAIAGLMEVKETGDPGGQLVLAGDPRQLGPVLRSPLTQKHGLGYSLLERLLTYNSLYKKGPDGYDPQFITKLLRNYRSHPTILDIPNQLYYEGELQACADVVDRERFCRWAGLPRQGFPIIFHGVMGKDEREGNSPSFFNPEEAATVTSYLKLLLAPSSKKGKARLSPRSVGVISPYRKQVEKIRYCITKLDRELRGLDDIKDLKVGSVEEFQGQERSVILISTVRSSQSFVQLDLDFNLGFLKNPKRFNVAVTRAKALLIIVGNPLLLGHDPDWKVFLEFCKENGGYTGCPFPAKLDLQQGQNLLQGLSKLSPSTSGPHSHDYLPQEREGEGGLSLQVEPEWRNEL

SPTAN1 (human) = SPTAN1 (human) (UniProt Q13813); test: as above
LMNA (human) = LMNA (human) (UniProt P02545); test: as above
LMNA (human), sequence (P02545 1-646 limits assumed): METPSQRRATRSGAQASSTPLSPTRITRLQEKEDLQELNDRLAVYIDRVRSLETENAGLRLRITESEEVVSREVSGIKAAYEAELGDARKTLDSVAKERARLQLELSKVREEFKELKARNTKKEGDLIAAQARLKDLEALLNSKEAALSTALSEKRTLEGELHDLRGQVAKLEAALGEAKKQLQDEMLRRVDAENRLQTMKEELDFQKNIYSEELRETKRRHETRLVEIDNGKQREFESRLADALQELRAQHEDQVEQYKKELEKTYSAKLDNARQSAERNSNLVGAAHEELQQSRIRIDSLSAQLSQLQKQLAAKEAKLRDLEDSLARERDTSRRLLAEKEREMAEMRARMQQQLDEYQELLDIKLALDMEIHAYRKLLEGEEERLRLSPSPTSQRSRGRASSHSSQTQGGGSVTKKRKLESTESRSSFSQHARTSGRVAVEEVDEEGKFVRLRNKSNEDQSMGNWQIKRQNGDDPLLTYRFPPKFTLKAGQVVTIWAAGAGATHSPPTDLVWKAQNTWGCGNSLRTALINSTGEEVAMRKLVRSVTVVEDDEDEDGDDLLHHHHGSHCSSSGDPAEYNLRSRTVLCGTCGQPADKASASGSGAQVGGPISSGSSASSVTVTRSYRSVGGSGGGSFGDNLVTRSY

TAF15 (human) = TAF15 (human) (UniProt Q92804); test: co-IP with mouse anti-FLAG from lysate of cells overexpressing C-FLAG B3GNT2, then mass spectrometry
TCP1 (human) = TCP1 (human) (UniProt P17987); test: as above
SUPT16H (human) = SUPT16H (human) (UniProt Q9Y5B9); test: as above
TIMP3 (human) = TIMP3 (human) (UniProt P35625); test: as above
MAGED2 (human) = MAGED2 (human) (UniProt Q9UNF1); test: as above
MAGED2 (human), sequence (Q9UNF1 2-606 limits assumed): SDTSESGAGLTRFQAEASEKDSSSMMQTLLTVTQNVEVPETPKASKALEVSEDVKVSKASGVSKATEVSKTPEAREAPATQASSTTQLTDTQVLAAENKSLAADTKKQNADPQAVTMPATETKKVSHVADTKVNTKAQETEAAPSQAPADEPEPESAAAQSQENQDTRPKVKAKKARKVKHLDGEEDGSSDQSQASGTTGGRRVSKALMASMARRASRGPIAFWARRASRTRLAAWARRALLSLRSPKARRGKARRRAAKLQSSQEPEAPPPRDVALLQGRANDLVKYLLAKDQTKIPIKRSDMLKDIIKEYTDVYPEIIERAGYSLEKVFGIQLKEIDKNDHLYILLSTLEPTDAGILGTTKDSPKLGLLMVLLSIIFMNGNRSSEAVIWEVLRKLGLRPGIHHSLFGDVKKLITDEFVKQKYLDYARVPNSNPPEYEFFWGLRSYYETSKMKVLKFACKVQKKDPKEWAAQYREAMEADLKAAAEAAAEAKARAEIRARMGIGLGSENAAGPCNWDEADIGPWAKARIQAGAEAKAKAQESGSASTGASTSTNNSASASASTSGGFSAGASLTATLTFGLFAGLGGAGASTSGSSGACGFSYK

EIF3I (human) = EIF3I (human) (UniProt Q13347); test: as above
SRP14 (human) = SRP14 (human) (UniProt P37108); test: as above
SRP14 (human), sequence (P37108 2-136 limits assumed): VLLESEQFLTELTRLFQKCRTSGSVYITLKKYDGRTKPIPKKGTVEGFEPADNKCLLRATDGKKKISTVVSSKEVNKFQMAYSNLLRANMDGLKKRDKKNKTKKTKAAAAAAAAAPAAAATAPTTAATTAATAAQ

TFAM (human) = TFAM (human) (UniProt Q00059); test: as above
SLC25A5 (human) = SLC25A5 (human) (UniProt P05141); test: co-IP with anti-FLAG, mass spectrometry; lysate of cells with N-FLAG B3GNT2
SLC25A5 (human), sequence (P05141 2-298 limits assumed): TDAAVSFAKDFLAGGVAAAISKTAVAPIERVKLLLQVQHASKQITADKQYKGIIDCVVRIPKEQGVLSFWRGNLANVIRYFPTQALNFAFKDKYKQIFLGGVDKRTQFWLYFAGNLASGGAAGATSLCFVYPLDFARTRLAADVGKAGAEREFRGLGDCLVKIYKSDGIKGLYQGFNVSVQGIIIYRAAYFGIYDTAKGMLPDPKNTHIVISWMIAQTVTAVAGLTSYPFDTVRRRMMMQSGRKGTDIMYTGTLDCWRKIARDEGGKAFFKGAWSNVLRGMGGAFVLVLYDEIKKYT

MARS (human) = MARS (human) (UniProt P56192); test: as above
MSN (human) = MSN (human) (UniProt P26038); test: as above
EIF4A1 (human) = EIF4A1 (human) (UniProt P60842); test: as above
ZC3HAV1 (human) = ZC3HAV1 (human) (UniProt Q7Z2W4); test: as above
ARF4 (human) = ARF4 (human) (UniProt P18085); test: as above
SEL1L (human) = SEL1L (human) (UniProt Q9UBV2); test: as above
SEL1L (human), sequence (Q9UBV2 22-794 limits assumed): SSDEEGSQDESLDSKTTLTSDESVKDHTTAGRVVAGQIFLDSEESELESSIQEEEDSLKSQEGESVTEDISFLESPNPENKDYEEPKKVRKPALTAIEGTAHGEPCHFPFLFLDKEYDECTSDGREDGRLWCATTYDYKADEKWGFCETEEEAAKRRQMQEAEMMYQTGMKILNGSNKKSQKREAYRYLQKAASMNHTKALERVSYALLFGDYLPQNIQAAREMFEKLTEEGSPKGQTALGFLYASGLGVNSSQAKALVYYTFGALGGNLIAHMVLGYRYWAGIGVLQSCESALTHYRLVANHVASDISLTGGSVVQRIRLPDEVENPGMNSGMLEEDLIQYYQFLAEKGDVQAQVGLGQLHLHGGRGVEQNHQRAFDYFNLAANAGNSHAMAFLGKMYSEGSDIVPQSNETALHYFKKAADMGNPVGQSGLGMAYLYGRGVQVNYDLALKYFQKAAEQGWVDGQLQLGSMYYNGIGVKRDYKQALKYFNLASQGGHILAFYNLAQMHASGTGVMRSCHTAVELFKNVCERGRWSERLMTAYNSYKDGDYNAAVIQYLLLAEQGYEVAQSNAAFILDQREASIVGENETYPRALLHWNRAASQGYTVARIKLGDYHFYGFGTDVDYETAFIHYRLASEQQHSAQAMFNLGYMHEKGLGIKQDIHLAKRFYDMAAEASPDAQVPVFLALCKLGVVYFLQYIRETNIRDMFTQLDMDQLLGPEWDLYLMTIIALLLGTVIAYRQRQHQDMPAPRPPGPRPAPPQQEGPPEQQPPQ

UGGT1 (human) = UGGT1 (human) (UniProt Q9NYU2); test: as above
UGGT1 (human), sequence (Q9NYU2 43-1555 limits assumed): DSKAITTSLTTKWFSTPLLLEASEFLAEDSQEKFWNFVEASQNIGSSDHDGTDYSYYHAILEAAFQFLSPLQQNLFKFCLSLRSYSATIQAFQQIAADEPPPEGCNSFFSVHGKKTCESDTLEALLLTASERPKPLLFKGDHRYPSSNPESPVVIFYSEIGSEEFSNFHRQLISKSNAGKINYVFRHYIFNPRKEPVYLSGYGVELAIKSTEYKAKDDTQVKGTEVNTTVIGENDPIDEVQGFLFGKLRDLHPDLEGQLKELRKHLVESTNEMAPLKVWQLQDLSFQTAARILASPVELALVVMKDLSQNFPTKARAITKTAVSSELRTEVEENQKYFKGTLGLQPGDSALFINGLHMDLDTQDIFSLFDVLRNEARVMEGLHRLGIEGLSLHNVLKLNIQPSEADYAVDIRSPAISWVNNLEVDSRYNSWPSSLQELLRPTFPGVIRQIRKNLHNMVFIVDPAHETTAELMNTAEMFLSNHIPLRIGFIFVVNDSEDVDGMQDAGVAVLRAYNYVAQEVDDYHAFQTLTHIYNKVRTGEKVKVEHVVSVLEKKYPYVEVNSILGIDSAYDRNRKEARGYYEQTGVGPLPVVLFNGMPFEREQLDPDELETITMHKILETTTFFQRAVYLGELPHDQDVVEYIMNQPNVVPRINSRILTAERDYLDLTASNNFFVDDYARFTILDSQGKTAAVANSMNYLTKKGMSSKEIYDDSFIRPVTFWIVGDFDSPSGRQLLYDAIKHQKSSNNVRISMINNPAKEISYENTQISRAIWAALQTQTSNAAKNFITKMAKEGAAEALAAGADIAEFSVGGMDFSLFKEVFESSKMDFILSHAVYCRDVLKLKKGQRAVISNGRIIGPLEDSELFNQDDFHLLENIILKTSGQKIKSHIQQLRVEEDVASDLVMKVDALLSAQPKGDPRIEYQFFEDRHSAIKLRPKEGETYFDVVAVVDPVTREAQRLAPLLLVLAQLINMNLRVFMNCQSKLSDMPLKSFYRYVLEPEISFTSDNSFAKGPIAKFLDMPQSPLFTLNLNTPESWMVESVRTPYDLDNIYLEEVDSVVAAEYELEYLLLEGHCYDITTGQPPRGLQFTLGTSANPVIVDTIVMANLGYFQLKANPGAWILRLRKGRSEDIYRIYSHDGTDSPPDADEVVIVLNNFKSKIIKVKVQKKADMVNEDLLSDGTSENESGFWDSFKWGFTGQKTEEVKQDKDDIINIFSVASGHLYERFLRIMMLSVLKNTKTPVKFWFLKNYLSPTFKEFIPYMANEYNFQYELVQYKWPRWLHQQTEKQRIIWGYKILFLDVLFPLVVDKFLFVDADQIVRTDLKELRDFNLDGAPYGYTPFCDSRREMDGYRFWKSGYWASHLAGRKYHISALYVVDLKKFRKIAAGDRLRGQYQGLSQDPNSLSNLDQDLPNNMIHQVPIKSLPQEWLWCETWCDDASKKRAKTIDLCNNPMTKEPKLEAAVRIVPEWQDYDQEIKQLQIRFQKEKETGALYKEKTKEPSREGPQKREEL

DNAJB11 (human) = DNAJB11 (human) (UniProt Q9UBS4); test: as above
MYO1C (human) = MYO1C (human) (UniProt O00159); test: as above
SPRR1A (human) = SPRR1A (human) (UniProt P35321); test: as above

FUBP3 (human), sequence (Q96I24 2-572 limits assumed): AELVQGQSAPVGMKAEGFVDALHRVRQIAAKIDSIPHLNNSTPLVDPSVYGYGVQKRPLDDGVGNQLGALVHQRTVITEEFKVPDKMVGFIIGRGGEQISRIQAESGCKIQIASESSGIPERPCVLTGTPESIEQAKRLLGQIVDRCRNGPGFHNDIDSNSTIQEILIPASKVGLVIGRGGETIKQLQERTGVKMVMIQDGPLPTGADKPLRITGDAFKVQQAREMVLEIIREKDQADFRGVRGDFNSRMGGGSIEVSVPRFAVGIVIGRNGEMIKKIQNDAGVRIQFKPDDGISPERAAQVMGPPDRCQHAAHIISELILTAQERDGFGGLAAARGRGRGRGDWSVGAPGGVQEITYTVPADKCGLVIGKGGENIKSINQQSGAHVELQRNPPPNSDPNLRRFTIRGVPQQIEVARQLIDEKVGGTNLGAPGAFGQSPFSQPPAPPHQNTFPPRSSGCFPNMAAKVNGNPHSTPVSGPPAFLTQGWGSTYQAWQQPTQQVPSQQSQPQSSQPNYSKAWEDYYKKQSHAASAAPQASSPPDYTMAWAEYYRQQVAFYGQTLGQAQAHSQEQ
HADHB (human), sequence (P55084 34-474 limits assumed): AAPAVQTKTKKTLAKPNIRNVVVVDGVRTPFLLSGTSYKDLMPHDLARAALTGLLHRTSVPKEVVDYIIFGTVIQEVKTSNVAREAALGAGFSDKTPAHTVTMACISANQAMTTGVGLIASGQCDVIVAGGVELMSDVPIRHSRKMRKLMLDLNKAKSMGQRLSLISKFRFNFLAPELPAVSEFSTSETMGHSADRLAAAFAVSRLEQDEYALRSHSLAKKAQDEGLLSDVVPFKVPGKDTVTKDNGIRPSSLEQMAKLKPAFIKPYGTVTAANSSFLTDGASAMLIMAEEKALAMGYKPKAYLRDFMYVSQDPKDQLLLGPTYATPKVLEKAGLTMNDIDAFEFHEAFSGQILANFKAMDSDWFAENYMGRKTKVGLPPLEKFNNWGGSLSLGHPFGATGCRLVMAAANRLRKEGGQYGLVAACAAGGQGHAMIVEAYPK

IgG control (Millipore Sigma 12-371) (antibody)
co-IP mass spectrometry count (HNRNPK (human)): 8
co-IP mass spectrometry count (HADHB (human)): 0
co-IP mass spectrometry count (FUBP3 (human)): 8
co-IP mass spectrometry count (MOV10 (human)): 3
co-IP mass spectrometry count (SPTAN1 (human)): 0
co-IP mass spectrometry count (LMNA (human)): 11

C-terminal FLAG tagged B3GNT2 (from UniProt Q9NY97 1-397) (enzyme)
co-IP mass spectrometry count (C-term flag) (TAF15 (human)): 10
co-IP mass spectrometry count (C-term flag) (TCP1 (human)): 3
co-IP mass spectrometry count (C-term flag) (SUPT16H (human)): 3
co-IP mass spectrometry count (C-term flag) (TIMP3 (human)): 3
co-IP mass spectrometry count (C-term flag) (MAGED2 (human)): 3
co-IP mass spectrometry count (C-term flag) (EIF3I (human)): 3
co-IP mass spectrometry count (C-term flag) (SRP14 (human)): 3
co-IP mass spectrometry count (C-term flag) (TFAM (human)): 3

N-terminal FLAG tagged B3GNT2 (from UniProt Q9NY97 1-397) (enzyme)
co-IP mass spectrometry count (SLC25A5 (human)): 19
co-IP mass spectrometry count (MARS (human)): 2
co-IP mass spectrometry count (MSN (human)): 3
co-IP mass spectrometry count (EIF4A1 (human)): 2
co-IP mass spectrometry count (ZC3HAV1 (human)): 3
co-IP mass spectrometry count (ARF4 (human)): 4
co-IP mass spectrometry count (SEL1L (human)): 3
co-IP mass spectrometry count (UGGT1 (human)): 2
co-IP mass spectrometry count (DNAJB11 (human)): 3
co-IP mass spectrometry count (MYO1C (human)): 4
co-IP mass spectrometry count (SPRR1A (human)): 4
